Data on 1 substance can be found in publication PMC6588657 (2018).

The experiment concerns the target Full-length Drosophila ATL (Drosophila) (UniProt Q9VC57).

Chain of Full-length Drosophila ATL (Drosophila) (Q9VC57 whole entry): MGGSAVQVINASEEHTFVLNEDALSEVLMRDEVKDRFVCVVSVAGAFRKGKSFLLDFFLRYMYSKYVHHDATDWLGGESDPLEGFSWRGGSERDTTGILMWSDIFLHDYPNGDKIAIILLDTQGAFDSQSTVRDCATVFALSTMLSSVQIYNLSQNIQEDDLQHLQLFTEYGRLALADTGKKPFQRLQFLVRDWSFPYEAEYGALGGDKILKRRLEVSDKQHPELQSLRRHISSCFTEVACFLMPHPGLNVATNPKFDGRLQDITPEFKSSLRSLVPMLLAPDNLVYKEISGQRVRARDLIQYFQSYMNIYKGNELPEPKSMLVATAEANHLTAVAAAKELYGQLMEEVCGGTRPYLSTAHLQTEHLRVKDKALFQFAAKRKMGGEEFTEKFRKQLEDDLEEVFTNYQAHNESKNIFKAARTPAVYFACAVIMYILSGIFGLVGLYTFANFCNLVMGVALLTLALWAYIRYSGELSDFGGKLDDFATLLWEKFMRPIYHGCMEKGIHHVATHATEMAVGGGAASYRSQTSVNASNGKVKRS

Take dmLnp-NT-Flag-GST (domain or fragment): the GTP-dependent fusion of dmATL donor and acceptor vesicles (NBD dequenching), dmLnp-NT at 5 times the concentration of dmATL, against samples without Lnp came to 50%.
